Experiments:
[1] = biological target: 6H-RdfS, N-terminal hexahistidine fusion of RdfS (Mesorhizobium japonicum R7A); test: SEC-SAXS; SEC-SY-SAXS (Australian Synchrotron) of 6H-RdfS bound to the 40-bp dsDNA attP_8; mass of the nucleoprotein complex from scattering
[2] = biological target: RdfS, recombination directionality factor of ICEMlSym^R7A (6H tag removed) (Mesorhizobium japonicum R7A); test: SEC; analytical gel filtration, Superdex 75 10/300 GL, 50 mM Tris–HCl, 300 mM NaCl, 5% (v/v) glycerol, pH 7.4, 4°C, 0.5 ml/min; protein at ∼7 mg/ml, 50 μl injected; no DNA
[3] = test system: RdfS13-89 (Mesorhizobium japonicum R7A (ICEMlSymR7A)); test: EMSA; details: EMSA: DNA master mix 50 mM Tris-HCl, 150 mM NaCl, 5% glycerol, pH 7.4, 1 unit poly[d(I-C)] (10 of 20 uL), 10 nM DNA; SPR: ReDCaT on Biacore T200, 1 uM protein …
[4] = biological target: T1, RdfS (Mesorhizobium japonicum R7A (ICEMlSymR7A)) (UniProt Q7AL96); test: EMSA; details: EMSA: DNA master mix 50 mM Tris-HCl, 150 mM NaCl, 5% glycerol, pH 7.4, 1 unit poly[d(I-C)] (10 of 20 uL), 10 nM DNA; SPR: ReDCaT on Biacore T200, 1 uM protein …
T1 sequence: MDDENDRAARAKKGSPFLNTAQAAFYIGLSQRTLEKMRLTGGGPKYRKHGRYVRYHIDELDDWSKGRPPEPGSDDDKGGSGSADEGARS

[5] = biological target: RdfS_(13–89), α1-truncated RdfS (Mesorhizobium japonicum R7A); test: SEC; analytical gel filtration, Superdex 75 10/300 GL, 50 mM Tris–HCl, 300 mM NaCl, 5% (v/v) glycerol, pH 7.4, 4°C, 0.5 ml/min; protein at ∼7 mg/ml, 50 μl injected; no DNA
[6] = biological target: T2, 6H-RdfS (Mesorhizobium japonicum R7A …, UniProt Q7AL96 1-89); test: SEC-SAXS; 4:1 protein:dsDNA; EMSA: DNA master mix 50 mM Tris-HCl, 150 mM NaCl, 5% glycerol, pH 7.4, 1 unit poly[d(I-C)] (10 of 20 uL), 10 nM DNA; SPR: ReDCaT on Biacore T200, 1 uM protein; details: protein: recombinant; tags: N-terminal 6xHis; chain copies: 4; blunt
T2 sequence: T1 sequence

## 6H-RdfS, N-terminal hexahistidine fusion of RdfS (natural protein)
[1]
  stoichiometry N: 4

## RdfS, recombination directionality factor of ICEMlSym^R7A (6H tag removed) (natural protein)
[2]
  stoichiometry N: 4

## attP 283 bp
[3]
  binding signal (% of RdfS affinity): 50

## GCCGGCTCAAGCCCTCGCGCCGCAACTCGGCGCGGGGGTTCCCGCCGACGCTCGCCCGAAGGGGCGGCGAAAACTCCCACCCGACTCTTCGCCCGTCCCCACGACGACCTCGTTCGCCGATCCTCGCGGTTGCTTGTCCGAAGCGAAACGAGGACC (double strand) [PrdfS 162 bp]
[4]
  binding: binds

## RdfS_(13–89), α1-truncated RdfS (domain or fragment)
[5]
  stoichiometry N: 2

B1: attP_8 40-mer (dsDNA)
DNA 1: GAATTTCGGCGCAGTTGGTCCAACGAGGCGGGGGGCTGGT
DNA 2: ACCAGCCCCCCGCCTCGTTGGACCAACTGCGCCGAAATTC
[6]
  binding result: binds

From publication PMC11963761, “Structural basis for control of integrative and conjugative element excision and transfer by the oligomeric winged helix–turn–helix protein RdfS”
